Experimental data taken from publication PMC9618773 (iScience, 2022).

B1: full-length human steroid receptor coactivator-2 (natural protein)
chain: not shown

How the values were obtained:
full-length human p300 [1] = biological target: T1, full-length human p300 (human, UniProt Q09472 1-2414); assay: cryo-EM structure
[2] = biological target: B1; assay: cryo-EM structure
cryo-EM structure = biological target: the molecule itself; assay: cryo-EM structure
full-length human p300 [3] = biological target: T1, full-length human p300; assay: pull-down
[4] = biological target: B1; assay: pull-down

T1 sequence (Q09472 whole entry): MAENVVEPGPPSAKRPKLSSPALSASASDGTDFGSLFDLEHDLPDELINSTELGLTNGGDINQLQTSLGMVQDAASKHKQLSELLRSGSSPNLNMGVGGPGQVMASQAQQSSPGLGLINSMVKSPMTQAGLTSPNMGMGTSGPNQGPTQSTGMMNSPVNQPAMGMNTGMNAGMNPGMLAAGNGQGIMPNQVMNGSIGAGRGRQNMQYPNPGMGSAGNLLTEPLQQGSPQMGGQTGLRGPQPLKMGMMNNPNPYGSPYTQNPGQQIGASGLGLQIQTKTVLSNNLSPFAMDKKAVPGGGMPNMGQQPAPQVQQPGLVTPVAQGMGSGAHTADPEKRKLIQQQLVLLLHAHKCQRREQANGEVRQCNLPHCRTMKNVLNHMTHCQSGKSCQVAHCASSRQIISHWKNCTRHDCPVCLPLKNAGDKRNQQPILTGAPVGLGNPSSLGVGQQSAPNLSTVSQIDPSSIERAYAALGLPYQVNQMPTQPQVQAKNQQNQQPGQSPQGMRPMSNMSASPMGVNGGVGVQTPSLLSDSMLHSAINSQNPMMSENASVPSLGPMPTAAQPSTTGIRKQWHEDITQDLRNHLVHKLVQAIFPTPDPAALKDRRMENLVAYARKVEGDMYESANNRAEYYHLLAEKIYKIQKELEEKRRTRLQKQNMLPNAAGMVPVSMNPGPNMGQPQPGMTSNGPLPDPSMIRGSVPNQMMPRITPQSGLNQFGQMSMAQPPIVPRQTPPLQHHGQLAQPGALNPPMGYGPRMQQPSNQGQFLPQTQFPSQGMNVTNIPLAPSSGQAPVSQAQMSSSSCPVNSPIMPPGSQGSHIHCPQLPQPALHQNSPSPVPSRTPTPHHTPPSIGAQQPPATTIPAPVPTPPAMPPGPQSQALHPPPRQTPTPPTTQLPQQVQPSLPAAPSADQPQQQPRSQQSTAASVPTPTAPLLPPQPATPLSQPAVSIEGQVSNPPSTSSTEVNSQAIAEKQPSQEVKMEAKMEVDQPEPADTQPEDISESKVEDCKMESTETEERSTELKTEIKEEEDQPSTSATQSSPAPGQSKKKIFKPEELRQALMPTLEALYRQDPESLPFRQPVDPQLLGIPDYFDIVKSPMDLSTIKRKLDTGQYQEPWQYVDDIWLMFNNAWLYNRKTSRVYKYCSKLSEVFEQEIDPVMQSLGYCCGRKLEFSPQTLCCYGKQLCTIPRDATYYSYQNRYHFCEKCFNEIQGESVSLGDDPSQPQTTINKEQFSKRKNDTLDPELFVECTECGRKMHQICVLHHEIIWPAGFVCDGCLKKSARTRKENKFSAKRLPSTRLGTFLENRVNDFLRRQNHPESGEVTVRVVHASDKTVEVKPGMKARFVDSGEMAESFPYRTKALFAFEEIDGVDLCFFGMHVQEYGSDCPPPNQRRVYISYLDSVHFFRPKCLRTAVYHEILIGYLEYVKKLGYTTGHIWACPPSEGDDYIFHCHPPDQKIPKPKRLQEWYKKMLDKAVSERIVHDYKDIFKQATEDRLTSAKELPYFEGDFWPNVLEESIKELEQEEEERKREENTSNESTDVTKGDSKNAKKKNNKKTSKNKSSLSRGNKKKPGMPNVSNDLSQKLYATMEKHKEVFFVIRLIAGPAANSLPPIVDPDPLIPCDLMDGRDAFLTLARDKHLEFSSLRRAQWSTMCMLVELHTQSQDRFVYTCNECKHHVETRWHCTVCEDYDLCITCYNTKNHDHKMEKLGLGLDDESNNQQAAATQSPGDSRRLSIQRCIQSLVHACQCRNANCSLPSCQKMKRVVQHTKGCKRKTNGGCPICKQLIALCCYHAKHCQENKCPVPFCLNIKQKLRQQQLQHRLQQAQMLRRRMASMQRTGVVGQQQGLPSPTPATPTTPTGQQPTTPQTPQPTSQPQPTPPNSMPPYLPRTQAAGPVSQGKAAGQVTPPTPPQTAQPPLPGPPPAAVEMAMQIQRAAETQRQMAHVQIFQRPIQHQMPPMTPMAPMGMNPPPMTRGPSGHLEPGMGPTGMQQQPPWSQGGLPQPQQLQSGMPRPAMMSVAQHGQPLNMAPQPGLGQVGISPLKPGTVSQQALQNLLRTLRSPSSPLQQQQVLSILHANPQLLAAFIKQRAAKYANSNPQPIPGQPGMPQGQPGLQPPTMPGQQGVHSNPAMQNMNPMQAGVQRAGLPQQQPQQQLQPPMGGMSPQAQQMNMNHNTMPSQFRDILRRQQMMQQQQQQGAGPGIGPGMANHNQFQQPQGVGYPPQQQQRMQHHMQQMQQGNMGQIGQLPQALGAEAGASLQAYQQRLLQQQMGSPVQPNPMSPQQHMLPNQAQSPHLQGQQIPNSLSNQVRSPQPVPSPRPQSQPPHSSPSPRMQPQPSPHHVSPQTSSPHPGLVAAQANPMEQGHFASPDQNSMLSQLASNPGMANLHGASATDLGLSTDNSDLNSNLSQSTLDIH

Binder	binding result (full-length human p300 [1])	binding result (full-length human p300 [3])	further results
full-length human progesterone receptor-B (receptor, UniProt P06401 1-933, looked up) MTELKAKGPRAPHVAGGPPSPEVGSPLLCRPAAGPFPGSQTSDTLPEVSAIPISLDGLLFPRPCQGQDPSDEKTQDQQSLSDVEGAYSRAEATRGAGGSSSSPPEKDSGLLDSVLDTLLAPSGPGQSQPSPPACEVTSSWCLFGPELPEDPPAAPATQRVLSPLMSRSGCKVGDSSGTAAAHKVLPRGLSPARQLLLPASESPHWSGAPVKPSPQAAAVEVEEEDGSESEESAGPLLKGKPRALGGAAAGGGAAAVPPGAAAGGVALVPKEDSRFSAPRVALVEQDAPMAPGRSPLATTVMDFIHVPILPLNHALLAARTRQLLEDESYDGGAGAASAFAPPRSSPCASSTPVAVGDFPDCAYPPDAEPKDDAYPLYSDFQPPALKIKEEEEGAEASARSPRSYLVAGANPAAFPDFPLGPPPPLPPRATPSRPGEAAVTAAPASASVSSASSSGSTLECILYKAEGAPPQQGPFAPPPCKAPGASGCLLPRDGLPSTSASAAAAGAAPALYPALGLNGLPQLGYQAAVLKEGLPQVYPPYLNYLRPDSEASQSPQYSFESLPQKICLICGDEASGCHYGVLTCGSCKVFFKRAMEGQHNYLCAGRNDCIVDKIRRKNCPACRLRKCCQAGMVLGGRKFKKFNKVRVVRALDAVALPQPVGVPNESQALSQRFTFSPGQDIQLIPPLINLLMSIEPDVIYAGHDNTKPDTSSSLLTSLNQLGERQLLSVVKWSKSLPGFRNLHIDDQITLIQYSWMSLMVFGLGWRSYKHVSGQMLYFAPDLILNEQRMKESSFYSLCLTMWQIPQEFVKLQVSQEEFLCMKVLLLLNTIPLEGLRSQTQFEEMRSSYIRELIKAIGLRQKGVVSSSQRFYQLTKLLDNLHDLVKQLHLYCLNTFIQSRALSVEFPEMMSEVIAAQLPKILAGMVKPLLFHKK	binds	–	binding result [2]: binds; stoichiometry N (cryo-EM structure): 2
GST-fused PR-B fragment AF3 (1-170 aa) (domain or fragment, human, UniProt P06401 1-170, looked up) MTELKAKGPRAPHVAGGPPSPEVGSPLLCRPAAGPFPGSQTSDTLPEVSAIPISLDGLLFPRPCQGQDPSDEKTQDQQSLSDVEGAYSRAEATRGAGGSSSSPPEKDSGLLDSVLDTLLAPSGPGQSQPSPPACEVTSSWCLFGPELPEDPPAAPATQRVLSPLMSRSGC	–	binds	–
GST-fused PR-B fragment LBD (688-933 aa, which contains the AF2) (domain or fragment, human, UniProt P06401 688-933, looked up) INLLMSIEPDVIYAGHDNTKPDTSSSLLTSLNQLGERQLLSVVKWSKSLPGFRNLHIDDQITLIQYSWMSLMVFGLGWRSYKHVSGQMLYFAPDLILNEQRMKESSFYSLCLTMWQIPQEFVKLQVSQEEFLCMKVLLLLNTIPLEGLRSQTQFEEMRSSYIRELIKAIGLRQKGVVSSSQRFYQLTKLLDNLHDLVKQLHLYCLNTFIQSRALSVEFPEMMSEVIAAQLPKILAGMVKPLLFHKK	–	binds	–
B1	binds	–	–
GST-fused PR-B fragment AF1 (401-546 aa) (domain or fragment, human, UniProt P06401 401-546, looked up) PRSYLVAGANPAAFPDFPLGPPPPLPPRATPSRPGEAAVTAAPASASVSSASSSGSTLECILYKAEGAPPQQGPFAPPPCKAPGASGCLLPRDGLPSTSASAAAAGAAPALYPALGLNGLPQLGYQAAVLKEGLPQVYPPYLNYLR	–	binds	binding result [4]: binds
